This test has as its target GST-Cks2 (Xenopus laevis Cks2α, wild type) (Xenopus laevis) (UniProt Q91879). The test can be described thus: pull-down.
Sequence of UniProt Q91879 (Q91879 whole entry): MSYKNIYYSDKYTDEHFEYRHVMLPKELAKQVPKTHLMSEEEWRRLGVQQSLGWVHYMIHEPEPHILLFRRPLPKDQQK

As a reminder, the EC50 is the midpoint of the concentration-response curve. High values mean weaker potency, low ones greater potency. Substance “Hyperphosphorylated Wee1A (Flag-Wee1A-WT phosphorylated in vitro by cyclin B1-Cdk1) (from UniProt Q8AYK6 1-571) (natural protein)” yielded an EC50 of 120 nM.
Substance “Hypophosphorylated Wee1A (Flag-Wee1A-WT incubated with cyclin B1-Cdk1 without ATP) (from UniProt Q8AYK6 1-571) (natural protein)” displayed an EC50 of 526 nM.

(Values after PMC4928677.)
